For the assay, the target named is Karyopherin beta2 (Kapβ2), full length, wild type (human) (UniProt Q92973). Kind of assay: ITC; MBP-M9NLS(257-305) mutant titrated into full length Kapβ2. (ITC needs no label: the signal is the heat of the interaction.)
Sequence of Karyopherin beta2 (Kapβ2), full length, wild type (human) (Q92973 9-898 limits assumed): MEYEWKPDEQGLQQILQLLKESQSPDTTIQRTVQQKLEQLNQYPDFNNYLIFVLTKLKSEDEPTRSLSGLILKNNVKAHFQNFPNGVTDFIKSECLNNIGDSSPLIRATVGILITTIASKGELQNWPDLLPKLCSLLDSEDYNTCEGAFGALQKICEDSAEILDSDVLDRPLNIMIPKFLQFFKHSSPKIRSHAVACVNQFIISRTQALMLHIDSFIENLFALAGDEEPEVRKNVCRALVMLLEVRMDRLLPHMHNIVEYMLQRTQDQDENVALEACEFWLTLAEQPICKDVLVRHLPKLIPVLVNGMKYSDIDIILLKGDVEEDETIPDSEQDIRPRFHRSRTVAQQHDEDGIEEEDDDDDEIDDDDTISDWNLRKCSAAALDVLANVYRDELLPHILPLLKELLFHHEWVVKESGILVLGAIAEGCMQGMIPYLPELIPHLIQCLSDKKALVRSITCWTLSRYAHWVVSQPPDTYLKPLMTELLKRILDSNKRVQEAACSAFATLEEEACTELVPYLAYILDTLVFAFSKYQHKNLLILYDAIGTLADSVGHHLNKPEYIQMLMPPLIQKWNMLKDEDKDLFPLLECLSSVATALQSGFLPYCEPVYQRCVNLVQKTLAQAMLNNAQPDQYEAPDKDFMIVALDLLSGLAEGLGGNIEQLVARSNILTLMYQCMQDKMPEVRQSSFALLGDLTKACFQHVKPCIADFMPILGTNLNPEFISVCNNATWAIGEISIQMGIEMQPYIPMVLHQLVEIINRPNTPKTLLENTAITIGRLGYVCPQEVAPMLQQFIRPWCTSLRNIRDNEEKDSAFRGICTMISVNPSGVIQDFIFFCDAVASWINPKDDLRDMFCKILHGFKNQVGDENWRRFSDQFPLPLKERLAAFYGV
By Kd is commonly meant the concentration at which binding is half-saturated. A high value points to weaker binding. On to “MBP-M9NLS(257-305) F273A (from UniProt P09651 257-305)”, for which the Kd came to 61 nM.
In the case of “MBP-M9NLS(257-305) F281A (from UniProt P09651 257-305)” it was 56 nM; in that of “MBP-M9NLS(257-305) G274A (from UniProt P09651 257-305)”, 746 nM; in that of “MBP-M9NLS(257-305) G274A/P288A/Y289A (from UniProt P09651 257-305)”, 5900 nM.
The substance “MBP-M9NLS(257-305) M276A (from UniProt P09651 257-305)” came in with a Kd of 83 nM.
In the case of “MBP-M9NLS(257-305) P275A (from UniProt P09651 257-305)” it was 74 nM.
“MBP-M9NLS(257-305) P288A (from UniProt P09651 257-305)” displayed a Kd of 158 nM.
Substance “MBP-M9NLS(257-305) P288A/Y289A (from UniProt P09651 257-305)” gave a Kd of 136 nM.
In the case of “MBP-M9NLS(257-305) R284A (from UniProt P09651 257-305)” it was 92 nM; in that of “MBP-M9NLS(257-305) R284A/P288A/Y289A (from UniProt P09651 257-305)”, 461 nM.
As to “MBP-M9NLS(257-305) Y289A (from UniProt P09651 257-305)”, the Kd was determined as 133 nM.

The values above are taken from patent US20080015137A1.
